The text below walks through data of patent US20020051821A1, “Aliginate particle formulation” (priority 2000, published 2002).

The data set is classed as in vitro ADME. Conditions: human, topical or ocular, 3 mg. Here is the method:
For a composition performance test that more closely parallels eventual practical use, candidate particle compositions can be injected into dermatomed, full thickness human skin samples. Replicate skin samples after injection can be placed on modified Franz diffusion cells containing 32° C. water, physiologic saline or buffer. Additives such as surfactants may be used to prevent binding to diffusion cell components and to maintain sink conditions. Two kinds of measurements can be made to assess performance of the formulation in the skin.
To measure the formulation performance in vitro, the active (guest) component(s) of candidate compositions can be collected by complete or aliquot replacement of the Franz cell receiver solution at predetermined time intervals for chemical assay using HPLC or other suitable analytical technique. Concentration data can be used to generate a delivery profile and calculate a steady state permeation rate. This technique can be used to screen formulations for early indication of drug binding to skin, drug dissolution, efficiency of particle penetration of stratum corneum, etc., prior to in vivo studies.
Modified Franz cells (6.9 ml) were designed for investigation of transdermal flux (FIG. 1). […]

In turn, lysozyme [Neat lysozyme] registered a Bioavailability of 7.1%. Substance Alginate returned a Bioavailability of 63.8%.
